These results are taken from patent US20190284297A1 (NOVIMMUNE, published 2019).

Where a chain is given by its changes, count along the chain named.

The chains are these.
B1: IgG 1D8 (antibody, V domains shown)
VH: EVQLVESGGGLVQPGGSLKLSCAASGFTFNTYAMNWVRQAPGKGLEWVGRIRSKYNNYATYYADSVKDRFTISRDDSKNTAYLQMNSLKTEDTAVYYCVRHGNFGNSYVSWFAYWGQGTLVTVSS
VL: QTVVTQEPSLTVSPGGTVTLTCRSSTGAVTTSNYANWFQQKPGQAPRGLIGGTNKRAPGTPARFSGSLLGGKAALTLSGAQPEDEAEYYCALWYDGTWVFGGGTKLTVL
notes: also called L3sp34-G1-1-R2-P1_D8
B2: IgG 1B6 (antibody, V domains shown)
VH: B1 VH
VL: B1 VL with D95A, G96N, T97R
notes: also called L3sp34-G1-1-R2-P1_B6
B3: IgG 1A10 (antibody, V domains shown)
VH: B1 VH
VL: B1 VL with D95K, T97Y
notes: also called L3sp34-G1-2-R2-P1_A10
B4: IgG 1A4 (antibody, V domains shown)
VH: B1 VH
VL: B1 VL with D95K, G96Q, T97R
notes: also called L3sp34-G1-2-R2-P1_A4
B5: IgG 1F8 (antibody, V domains shown)
VH: B1 VH
VL: B1 VL with T97K
notes: also called L3sp34-G1-2-R2-P1_F8
B6: IgG 1A11 (antibody, V domains shown)
VH: B1 VH
VL: B1 VL with T97W
notes: also called L3sp34-G1-1-R2-P1_A11

T1 sequence (P07766 23-207): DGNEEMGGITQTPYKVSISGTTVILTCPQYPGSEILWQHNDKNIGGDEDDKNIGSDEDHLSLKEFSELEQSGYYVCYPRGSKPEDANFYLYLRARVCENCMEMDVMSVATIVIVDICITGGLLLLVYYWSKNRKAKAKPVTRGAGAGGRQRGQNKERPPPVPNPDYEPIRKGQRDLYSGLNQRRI

The first test addresses T1, human CD3ε on T cells (Jurkat T cell line; CD4+ and CD8+ T cells from healthy human donors) (human, UniProt P07766 23-207).
T1 construct: whole, on cells
Kind of test: FACS on CD8+ T cells from PBMCs of healthy donors, antibody at 0.1 µg/ml. The protocol: (§1) Binding was also evaluated by FACS on different cell populations including T cell lines and natural cell populations derived from healthy blood donors. First, control and antiCD3ε candidates were tested at different concentration on the human T cell line Jurkat. […] Binding to native cell populations was performed by isolating PBMCs from healthy donors and evaluating binding to CD4+ and CD8+ T cells as well as B cells.
With B1, the “MFI on CD8+ T cells” value turned out to be 161 MFI.
With B2, the “MFI on CD8+ T cells” value stood at 130 MFI.
The same measure, in the same setting: next, B3: 43 MFI; B4: 173 MFI.
For the molecule B5, the “MFI on CD8+ T cells” value was determined as 157 MFI.
Turning to B6, the “MFI on CD8+ T cells” value came to 119 MFI.

The target of another test is T1, human CD3ε on T cells (Jurkat T cell …). Description: FACS on CD4+ T cells from PBMCs of healthy donors, antibody at 0.1 µg/ml. The procedure:
as §1
Turning to B1, the “MFI on CD4+ T cells” value was 286 MFI.
On to B2, for which the “MFI on CD4+ T cells” value is 231 MFI.
Same read-out and setting: next, B3: 96 MFI.
As for B4, the “MFI on CD4+ T cells” value was determined as 284 MFI.
For B5, the “MFI on CD4+ T cells” value is 284 MFI.
For the molecule B6, the “MFI on CD4+ T cells” value was determined as 205 MFI.
